Measurements: patent US20130210673A1 (published 2013)

T1: human C-reactive protein (human, UniProt P02741 19-224, biotinylated or conjugated to AlexaFluor488 for labeling)
T1 construct: Bought protein; also called CRP; C-RP
T1 sequence (looked up): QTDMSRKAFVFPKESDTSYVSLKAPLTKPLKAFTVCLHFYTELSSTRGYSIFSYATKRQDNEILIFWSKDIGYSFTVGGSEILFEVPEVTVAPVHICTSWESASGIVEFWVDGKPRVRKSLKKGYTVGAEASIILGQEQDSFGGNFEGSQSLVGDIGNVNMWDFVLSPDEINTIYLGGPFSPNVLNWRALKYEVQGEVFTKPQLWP


Assays:
streptavidin [1] = target: T2, streptavidin (UniProt P22629 37-163, limits assumed); assay: bacterial display selection
T2 construct: Used as streptavidin-phycoerythrin in flow cytometry and as coated beads for YFP-SA-1; also called SA; streptavidin-phycoerythrin
T2 sequence (P22629 37-163 limits assumed): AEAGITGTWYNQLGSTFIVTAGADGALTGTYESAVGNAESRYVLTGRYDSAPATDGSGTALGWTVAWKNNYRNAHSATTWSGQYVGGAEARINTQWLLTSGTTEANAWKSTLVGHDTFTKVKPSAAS

streptavidin [2] = target: T2, streptavidin; assay: flow cytometry, equilibrium
Description: The corresponding mean fluorescence versus concentration data were fit to a monovalent binding isotherm to obtain the apparent KD. Dissociation rates of streptavidin-binding clones were measured in the presence of about 1 to about 2 μM biotin. Cells were labeled with 50 nM streptavidin-phycoerythrin for 30 minutes at room temperature. The cells were then pelleted, resuspended in PBS with biotin, and immediately analyzed by flow cytometry. Fluorescence data were collected continuously for about five minutes. The dissociation rate constants were then determined as described previously. See Daugherty, P. S., et al. (1998) Protein Eng. 11(9):825-832, which is herein incorporated by reference.

human C-reactive protein = target: T1, human C-reactive protein; assay: bacterial display selection

Binder	binding result (streptavidin [1])	also measured
TWVQCTMVCYGMSTT (insert only) [SEQ ID NO 242]	binds	–
ICSYVMYTTCFLRVY (insert only) [SEQ ID NO 234]	–	binding result (streptavidin [2]): binds
NEWYCQNVCERMPHS (insert only) [SEQ ID NO 241]	binds	–
RLEICQNVCYYLGTL (insert only) [SEQ ID NO 232]	–	binding result (streptavidin [2]): binds
TVLICMNICWTGETQ (insert only) [SEQ ID NO 236]	binds	–
EWACNDRGFNCQLQR (insert only) [SEQ ID NO 255]	–	binding result (human C-reactive protein): binds
RLEICQNVCYYLGTL (insert only) [SEQ ID NO 235]	binds	–
IMMECFYVCTIANTQ (insert only) [SEQ ID NO 245]	binds	–
MIFNSRGFLSLMSSG (insert only) [SEQ ID NO 253]	–	binding result (human C-reactive protein): binds
LPVWCVMHVCLTSSR (insert only) [SEQ ID NO 239]	binds	–
TVLICMNICWTGETQ (insert only) [SEQ ID NO 233]	–	binding result (streptavidin [2]): binds
FPIYNQRGFITLASP (insert only) [SEQ ID NO 256]	–	binding result (human C-reactive protein): binds
YPPRFQYYRFYYRGP (insert only) [SEQ ID NO 247]	–	binding result (human C-reactive protein): binds
ADTICWYVCTISVHA (insert only) [SEQ ID NO 244]	binds	–
YWVCMNVCMYYTARQ (insert only) [SEQ ID NO 238]	binds	–
ICSYVMYTTCFLRVY (insert only) [SEQ ID NO 237]	binds	–
